Data from patent publication US9976167B2, “Group of glycosyltransferases and use thereof” (Shanghai Institutes For Biological Sciences, Chinese …, priority 2012, dated 2018).

How the values were obtained:
Assay type in all cases: biochemical
[1] = Glycosyltransfering activities on ginsengenins and saponins: glycosylation site and specificity (summary)
Procedure: More than 100 predicted cDNA sequences of glycosyltransferases were extracted from the published expression profile data of the Panax plant. 60 cDNAs with full length were cloned, expressed, and subjected to the analysis of glycosyltransfering reaction.
(§1) The lysate supernatant of the recombinant yeasts expressing the empty vector was used as control.
(§2) The reaction was conducted under 35° C. for 12 hrs, then stopped by adding 100 μL of butanol. The product were extracted, dried in vacuum, and dissolved in methanol.
(§3) The glycosyltransfering reactions of ginsenosides and ginsengenins were catalyzed by using the lysis supernatant of the recombinant yeasts expressing 3GT1, 3GT2, 3GT3 and 3GT4 as crude enzymes. The lysis supernatant of recombinant E. coli expressing empty vectors was used as control. The 100 μL reaction system is shown as Table 3. The reaction was conducted under 35° C. for 12 hrs, then stopped by adding 100 μL of butanol. The product were extracted, dried in vacuum, and dissolved in methanol.
(§4) The lysate supernatant of the recombinant yeast expressing empty vectors was used as control. The reaction was conducted under 35° C. for 12 hrs, and then stopped by adding 100 μL of butanol. The product were extracted, dried in vacuum, and dissolved in methanol.
(§5) The glycosyltransfering reactions of ginsenosides Rh2 and F2 were catalyzed by using the lysate supernatant of the recombinant yeasts expressing 3GT1, 3GT2, 3GT3 and 3GT4 as crude enzymes. The 100 μL reaction system is shown as Table 3. The reaction was conducted under 35° C. for 12 hrs, and then stopped by adding 100 μL of butanol. The product were extracted, dried in vacuum, and dissolved in methanol.

[2] = Glycosyltransfering reaction with crude enzyme, substrate F2; conditions: 35° C., 12 hrs, TLC; for extension of C3 of F2 by one more glycosyl (product Rd): crude enzyme: lysate supernatant of recombinant yeast; for extension of C3 glycosyl of F2 by one more glycosyl (product Rd): crude enzymes of Example 21 (E. coli expression products)
Procedure: (§6) According to the method as in Example 4, the cell lysate of recombinant yeasts expressing gGT13 and gGT30 were used to catalyze PPD and PPT.
as §4, §5

[3] = Glycosyltransfering reaction with crude enzyme, substrate Rh2; conditions: crude enzyme: lysate supernatant of recombinant yeast; 35° C., 12 hrs; TLC
Procedure: as §1, §2
The reaction products were first detected by thin layer chromatography (TLC). […]
as §4, §5

[4] = as above; conditions: crude enzymes of Example 21 (E. coli expression products); 35° C., 12 hrs; TLC
[5] = Glycosyltransfering reaction with crude enzyme, substrate 25-OH-PPD; conditions: 35° C., 12 hrs, TLC
Procedure: as §3

[6] = Glycosyltransfering reaction with crude enzyme, substrate PPD; conditions: UDP-glucose, 35° C., 12 hrs, TLC
Procedure: as §1, §2
(§7) The reaction products were first detected by thin layer chromatography (TLC).
(§8) The converted products of gGT25 were further identified by HPLC (FIG. 10 and FIG. 11). The retention time of peak 2 was identical to that of the CK standard sample; the retention time of peak 3 was identical to that of PPD. […] Peak 1, also present in the profile of the negative control, indicated its irrelevance to the conversion of PPD. 3 peaks were shown in FIG. 11, the retention time of peak 1 was identical to that of F1 standard sample and peak 3 was identical to that of PPT. […] Peak 2, also present in the profile of the negative control, indicated its irrelevance to the conversion of PPT.
as §6
The cell lysis supernatant of the recombinant E. coli was used as crude enzyme to conduct the glycosyltransfering reaction, and the reaction condition was identical to that of Example 4.
The reaction was conducted under 35° C. for 12 hrs. 100 μL of butanol was added to stop the reaction and the products were extracted. Upon vacuum drying, the product was dissolved by methanol. TLC was first used to detect the reaction product.
as §3
The reaction was conducted under 35° C. for 12 hrs, and then stopped by adding 100 μL of butanol. The product were extracted, dried in vacuum, and dissolved in methanol. The reaction products were first detected by thin layer chromatography (TLC) (FIG. 35).

[7] = Glycosyltransfering reaction with crude enzyme, substrate CK; conditions: 35° C., 12 hrs, TLC
Procedure: as §6, §3

[8] = Glycosyltransfering reaction with crude enzyme, substrate PPT; conditions: crude enzyme: lysate supernatant of recombinant yeast; UDP-glucose, 35° C., 12 hrs; TLC
Procedure: as §1, §2, §7, §8, §6, §3

[9] = Glycosyltransfering reaction with crude enzyme, substrate DM; conditions: crude enzyme: lysate supernatant of recombinant yeast; UDP-glucose, 35° C., 12 hrs; TLC
Procedure: as §1, §2, §7, §3

[10] = Table 2, tetracyclic triterpenoid substrates
[11] = crude enzyme: lysate supernatant of recombinant E. coli, UDP-glucose

B1: gGT29: glycosyltransferase protein with 442 amino acids, SEQ ID NO.: 26 (protein)
chain: MDNQKGRISIALLPFLAHGHISPFFELAKQLAKRNCNVFLCSTPINLSSIKDKDSSASIKLVELHLPSSPDLPPHYHTTNGLPSHLMLPLRNAFETAGPTFSEILKTLNPDLLIYDFNPSWAPEIASSHNIPAVYFLTTAAASSSIGLHAFKNPGEKYPFPDFYDNSNITPEPPSADNMKLLHDFIACFERSCDIILIKSFRELEGKYIDLLSTLSDKTLVPVGPLVQDPMGHNEDPKTEQIINWLDKRAESTVVFVCFGSEYFLSNEELEEVAIGLEISTVNFIWAVRLIEGEKKGILPEGFVQRVGDRGLVVEGWAPQARILGHSSTGGFVSHCGWSSIAESMKFGVPVIAMARHLDQPLNGKLAAEVGVGMEVVRDENGKYKREGIAEVIRKVVVEKSGEVIRRKARELSEKMKEKGEQEIDRALEELVQICKKKKDEQ
modifications: Panax ginseng; gGT29
- glycosylation site: The first glycosyl at C-3 [1, 10]: ✓
- extension of C3 of F2 by one more glycosyl (product Rd) [2]: could be extended by one more glycosyl
- extension of C3 of Rh2 by one more glycosyl (product Rg3) [3]: could be extended by one more glycosyl

B2: gGT29-6: glycosyltransferase protein with 446 amino acids, SEQ ID NO.: 59 (protein)
chain: MDNQKGRISIVMLPFLAHGHISPFFELAKHLSKRNCNIFLCSTPINLSSIKNRISDKDSSASIKLVELHLPSSPDLPPHYHTTNGLPSHLMVPLRNAFETAAPTFSEILKTLNPDLLIYDFNPSWAPEIASSHNIPAVYFLTTAAASSSIGLHAFKNPGEKYPFPDFYDNSNNTPEPPSADNMKLLHDFIACFERSCDIILIKSFIELEGKYIDLLSTLSDKTLVPVGPLVQDPMGHNEDPKTEQIINWLDKRAESTVVFVCFGSEYFLSNEELEEVAIGLEISMVNFIWAVRLIEGEKKGVLPEGFVQRVGDRGLVVEGWAPQARILGHSSTGGFVSHCGWSSIAESMKFGVPVIAMARHLDQPLNGKLAAEVGVGMEVVRDENGKYKREDIAGVIRKVVVEKSGEVIRRKARELSEKMKEIGEQLIDRAVEELVQICKKKKDEQ
modifications: Panax ginseng; gGT29-6
- glycosylation site: The first glycosyl at C-3 [1, 10]: ✓
- extension of C3 glycosyl of F2 by one more glycosyl (product Rd) [2]: could be extended by one more glycosyl
- extension of C3 glycosyl of Rh2 by one more glycosyl (product Rg3) [4]: could be extended by one more glycosyl

B3: 3GT4: glycosyltransferase protein with 458 amino acids, SEQ ID NO.: 43 (protein)
chain: MEREMLSKTHIMFIPFPAQGHMSPMMQFAKRLAWKGLRITIVLPAQIRDFMQITNPLINTECISFDFDKDDGMPYSMQAYMGVVKLKVTNKLSDLLEKQRTNGYPVNLLVVDSLYPSRVEMCHQLGVKGAPFFTHSCAVGAIYYNARLGKLKIPPEEGLTSVSLPSIPLLGRDDLPIIRTGTFPDLFEHLGNQFSDLDKADWIFFNTFDKLENEEAKWLSSQWPITSIGPLIPSMYLDKQLPNDKDNGINFYKADVGSCIKWLDAKDPGSVVYASFGSVKHNLGDDYMDEVAWGLLHSKYHFIWVVIESERTKLSSDFLAEAEAEEKGLIVSWCPQLQVLSHKSIGSFMTHCGWNSTVEALSLGVPMVALPQQFDQPANAKYIVDVWQIGVRVPIGEEGVVLRGEVANCIKDVMEGEIGDELRGNALKWKGLAVEAMEKGGSSDKNIDEFISKLVSS
modifications: Panax ginseng; 3GT4
- glycosylation site: C-3 [1, 10]: ✓
- substrate spectrum / specificity ([1]; comparison of 3GT1, 3GT2, 3GT3 and 3GT4, Table 6): best specificity
- glycosylation of C3-OH of 25-OH-PPD (product 3-O-β-(D-glucopyranosyl)-25-OH-PPD) ([5]; crude enzyme of Example 11): could be glycosylated
- substrate that could be catalyzed: 25-OH-PPD [5, 11]: ✓
- substrate that could be catalyzed: PPD ([6]; crude enzyme: lysate supernatant of recombinant E. coli): ✓
- glycosylation of C3-OH of CK (product F2) ([7]; crude enzyme of Example 11): further glycosylating its C3-OH
- substrate that could be catalyzed: CK [7, 11]: ✓

B4: gGT29-3: glycosyltransferase protein with 442 amino acids, SEQ ID NO.: 28 (protein)
chain: MDNQEGRISIALLPFLAHGHISPFFELAKQLAKRNCNVFLCSTPINLSSIKNKDSSASIKLVELHLPSSPDLPPHYHTTNGLPSHLMVPLINAFETAGPTFSEILKTLNPDLLIYDFNPSWAPEIASSHNIPAVYFLTTAAASSSIGLHAFKNPGEKYPFPDFYDNSNNTPEPPSADNMKLLHDFIACFERSCDIILIKSFIELEGKYIDLLSTLSDKTLVPVGPLVQDPMGHNEDPKTEQIINWLDKRAESTVVFVCFGSEYFLSNEELEEVAIGLEISMVNFIWAVRLIEGEKKGVLPEGFVQRVGDRGLVVEGWAPQARILGHSSTGGFVSHCGWSSIAESMKFGVPVIAMARHLDQPLNGKLAAEVGVGMEVVRDENGKYKREGIAEVIRKVVVEKSGEVMRRKARELSEKMKEKGEEEIDRAVEELVQICKKKKDAQ
modifications: Panax ginseng; gGT29-3
- glycosylation site: The first glycosyl at C-3 [1, 10]: ✓
- extension of C3 of F2 by one more glycosyl (product Rd) [2]: could be extended by one more glycosyl
- extension of C3 of Rh2 by one more glycosyl (product Rg3) [3]: could be extended by one more glycosyl

B5: gGT29-4: glycosyltransferase protein with 446 amino acids, SEQ ID NO.: 55 (protein)
chain: MDNQKGRISIALLPFLAHGHISPFFELAKHLSKRNCNIFLCSTPINLSSIKNRISDKDSSASIKLVELHLPSSPDLPPHYHTTNGLPSHLMVPLRNAFETAAPTFSEILKTLNPDLLIYDFNPSWAPEIASSHNIPAVCFIIGGAASFSMSLHSFKNPGEKYPFLDFDDNSNITPEPPSADNMKLLLDFMTCFERSCDIILIKSFRELEGKYFDFYSTLSDKTLVPVGPLVQDPMGHNEDPKTEQFINWLDKRAESTVVFVCFGSEYFLSNEELEEVAIGLEISMVNFIWAVRLIEGEKKGVLPEGFVQRVGDRGLVVEGWAPQARILGHSSTGGFVSHCGWSSITESMKFGVPVIAMARHLDQPLNGKLAAEVGVGMEVVRDENGKYKREGIAEVIRKVVVEKSGEVMRRKARELSEKMKEKGEEEIDRAVEELVQICKKKKDEQ
modifications: Panax ginseng; gGT29-4
- glycosylation site: The first glycosyl at C-3 [1, 10]: ✓
- extension of C3 glycosyl of F2 by one more glycosyl (product Rd) [2]: could be extended by one more glycosyl
- extension of C3 glycosyl of Rh2 by one more glycosyl (product Rg3) [4]: could not be catalyzed

B6: gGT25-5: glycosyltransferase protein with 472 amino acids, SEQ ID NO.: 20 (protein)
chain: MKSELIFVPVPAFGHLVGMVEMAKLFISRHENLSVTVLISKFFIDTGIDNYNKSLLAKPTPRLTIINLPEIDPQKYLLKPRCAIFPSLIENQKTHVRDVMSRMTQSESTRVVGLLADILFVDIFDIADEFNVPTYVYSPAGAGFLGLAFHLQTLNDDKKQDVTEFRNSDTELLVPSFANPVPAEFLPSIFLEKDGRHDVLLSLYWRCREAKGIIVNTFEELEPYAINSLRMDSMIPPIYPVGPILNLNGEGQNSDEAAVILGWLDDQPPSSVVFLCFGSFGSFPENQVKEIAMGLERSGHRFLWSLRPCISEGETTLQLKYSNLELPAGFLDRTSCVGKVIGWAPQMAILAHEAVGGFVSHCGWNSVLESVWYGMPVATWPMYGEQQLNAFEMVKELGLAVEIEVDYRNEYNKSDFIVKADEIETKIKKLMMDGKNSKIRKKVKEMKEKSRVAMSENGSSYTSLAKLFEEIM
modifications: Panax ginseng; gGT25-5
- glycosylation site: C6 [1, 10]: ✓
- glycosylation of C20-OH of PPD (product CK) ([6]; crude enzyme: lysate supernatant of recombinant yeast): could not glycosylate the C20-OH
- glycosylation of C6-OH of PPT (product Rg1 or Rh1) [8]: can only glycosylate C6-OH
- glycosylation of C20-OH of PPT (product F1) [8]: could not glycosylate the C20-OH
- glycosylation of C20-OH of DM (product 20-O-β-(D-glucopyranosyl)-dammarendiol II) [9]: could not glycosylate the C20-OH
